Laboratory results taken from patent publication US20210338833A1 (MIT, published 2021).
Bridge positions count the residues as written; N and C are the ends. Ends that are not written are not given here. * marks the point of attachment. Biotin = O=C1N[C@H]2[C@H](CS[C@H]2CCCCC(=O)*)N1

B1: FMC63 IgG (antibody, V domains shown)
VH: EVKLQESGPGLVAPSQSLSVTCTVSGVSLPDYGVSWIRQPPRKGLEWLGVIWGSETTYYNSALKSRLTIIKDNSKSQVFLKMNSLQTDDTAIYYCAKHYYYGGSYAMDYWGQGTSVTVSS
VL: DIQMTQTTSSLSASLGDRVTISCRASQDISKYLNWYQQKPDGTVKLLIYHTSRLHSGVPSRFSGSGSGTDYSLTISNLEQEDIATYFCQQGNTLPYTFGGGTKLEIT
notes: Murine monoclonal antibody to human CD19; also called FMC63 IgG antibody; biotinylated FMC63 IgG
B2: FMC63 Mimotope (A1) RHCPWNCSLL (peptide)
peptide: RHCPWNCSLL
modifications: disulfide 3-7 (inferred)
notes: Aga2p-HA-(G4S)3-AS-peptide, cf

Tests used:
[1] = molecular target: T1, FMC63 Mimotope Mutant RLCPWSAACREL; experiment: flow cytometry of yeast clones stained with FMC63 IgG; stacked histograms, no unstained control drawn
T1 construct: also called G9 with two alanines inserted between the cysteines
T1 peptide: RLCPWSAACREL
Experimental: (§1) Specifically, a representative mimotope, […] […] To generate mutations, two complementary oligos with the codon replaced at the desired site were denatured at 95° C. and annealed by slow cooling to 25° C. (decreasing by 0.5° C./second). The annealed oligos were treated with T4 PNK (T4 Polynucleotide Kinase) to add a terminal phosphate, and then ligated into digested pCT-CON2 vector. Positive clones having the correct oligo inserted were tested and transformed into competent EBY100 yeast cells.

[2] = molecular target: T2, FMC63 Mimotope Mutant RLCPWSACREL; experiment: as above
T2 construct: also called G9 with one alanine inserted between the cysteines
T2 peptide: RLCPWSACREL
Experimental: as §1

[3] = molecular target: T3, biotinylated F12 mimotope RICPWNCKEL (no flanking residues) (not fully specified (bridges); cysteine pairing not given here); experiment: ELISA, biotinylated peptide on a streptavidin plate, OD(450nm) against the FMC63 IgG concentration (nM)
T3 construct: Free peptide loaded on a streptavidin coated plate for ELISA; also called Bio-F12; F12 without flanking residues
T3 peptide: Biotin-RICPWNCKEL

[4] = molecular target: T4, biotinylated F12 derivative SASRICPWNCKEL (not fully specified (bridges); cysteine pairing not given here); experiment: as above
T4 construct: Free peptide loaded on a streptavidin coated plate for ELISA
T4 peptide: Biotin-SASRICPWNCKEL

[5] = molecular target: T5, biotinylated F12 derivative GGGSASRICPWNCKEL (not fully specified (bridges); cysteine pairing not given here); experiment: as above
T5 construct: Free peptide loaded on a streptavidin coated plate for ELISA
T5 peptide: Biotin-GGGSASRICPWNCKEL

[6] = molecular target: T6, biotinylated F12 derivative GGSGGGGSASRICPWNCKEL (not fully specified; biotinylated on the N-terminus); experiment: as above
T6 construct: Free peptide loaded on a streptavidin coated plate for ELISA
T6 peptide: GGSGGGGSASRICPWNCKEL

[7] = molecular target: T7, biotinylated F12 derivative GSGGGGSGGGGSASRICPWNCKEL (not fully specified; biotinylated on the N-terminus); experiment: as above
T7 construct: Free peptide loaded on a streptavidin coated plate for ELISA
T7 peptide: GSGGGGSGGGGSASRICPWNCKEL

[8] = molecular target: T8, biotinylated F12 derivative GGGGSGGGGSGGGGSASRICPWNCKEL (not fully specified; biotinylated on the N-terminus); experiment: as above
T8 construct: Free peptide loaded on a streptavidin coated plate for ELISA
T8 peptide: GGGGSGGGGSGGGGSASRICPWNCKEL

[9] = molecular target: T9, FMC63 Mimotope (G9) RLCPWSCREL; experiment: flow cytometry of yeast clones stained with FMC63 IgG (5 µM by paragraph 811); stacked histograms, no unstained control drawn
T9 construct: Parent of the alanine scan
T9 peptide: RLCPWSCREL
Experimental: as §1

[10] = molecular target: T10, FMC63 Mimotope Mutant RLCPWSCREA; experiment: as above
T10 construct: also called G9 X5 (Leu 10) to Ala
T10 peptide: RLCPWSCREA
Experimental: as §1

[11] = molecular target: T11, FMC63 Mimotope Mutant RLCPWSCRAL; experiment: as above
T11 construct: also called G9 X4 (Glu 9) to Ala
T11 peptide: RLCPWSCRAL
Experimental: as §1

[12] = molecular target: T12, FMC63 Mimotope Mutant RLCPWSCAEL; experiment: as above
T12 construct: also called G9 X3 (Arg 8) to Ala
T12 peptide: RLCPWSCAEL
Experimental: as §1

[13] = molecular target: T13, FMC63 Mimotope Mutant RLCPWACREL; experiment: as above
T13 construct: also called G9 X2 (Ser 6) to Ala
T13 peptide: RLCPWACREL
Experimental: as §1

[14] = molecular target: T14, FMC63 Mimotope Mutant RACPWSCREL; experiment: as above
T14 construct: also called G9 X1 (Leu 2) to Ala
T14 peptide: RACPWSCREL
Experimental: as §1

[15] = molecular target: T15, FMC63 Mimotope (C5) RMCPWSCYEL; experiment: flow cytometry of yeast clones titrated with biotinylated FMC63 IgG, MFI (geometric mean); axis without unit, nM by the legend paragraph 211
T15 peptide: RMCPWSCYEL

[16] = molecular target: T16, FMC63 Mimotope (C7) RLCPWACQEQ; experiment: as above
T16 peptide: RLCPWACQEQ

[17] = molecular target: T17, FMC63 Mimotope (H1) RVCPWSCMPI; experiment: as above
T17 construct: Not the 1D3 mimotope that is also called H1
T17 peptide: RVCPWSCMPI

[18] = molecular target: T18, FMC63 Mimotope (E6) RLCPWSCVPI; experiment: as above
T18 peptide: RLCPWSCVPI

[19] = molecular target: T19, FMC63 Mimotope (G11) RLCPWNCREL; experiment: as above
T19 peptide: RLCPWNCREL

[20] = molecular target: T20, FMC63 Mimotope (F12) RICPWNCKEL; experiment: as above
T20 construct: also called F12 mimotope
T20 peptide: RICPWNCKEL

[21] = molecular target: T21, FMC63 Mimotope (F8) RLCPWDCREL; experiment: as above
T21 peptide: RLCPWDCREL

[22] = molecular target: T22, FMC63 Mimotope (H8) RICPWACVEL; experiment: as above
T22 peptide: RICPWACVEL

[23] = molecular target: T23, FMC63 Mimotope (H11) RICPWSCREL; experiment: as above
T23 peptide: RICPWSCREL

[24] = molecular target: T24, FMC63 Mimotope (B7) RICPWSCMVV; experiment: as above
T24 peptide: RICPWSCMVV

FMC63 IgG = molecular target: B1; experiment: ELISA with FMC63 IgG; ELISA with FMC63 IgG (FIG. 7); micromolar range

B1
binding result [1]: no binding | binding result [2]: no binding | binding result [3]: binds | binding result [4]: binds | binding result [5]: binds | binding result [6]: binds | binding result [7]: binds | binding result [8]: binds | binding result [9]: binds | binding result [10]: binds | binding result [11]: binds | binding result [12]: binds | binding result [13]: binds | binding result [14]: binds | binding result [15]: binds | binding result [16]: binds | binding result [17]: binds | binding result [18]: binds | binding result [19]: binds | binding result [20]: binds | binding result [21]: binds | binding result [22]: binds | binding result [23]: binds | binding result [24]: binds

B2
Kd (FMC63 IgG): ~1400 nM
